Assay results from publication PMC4186855, “A Soybean C2H2-Type Zinc Finger Gene GmZF1 Enhanced Cold Tolerance in Transgenic Arabidopsis”.

B1: E1 (wild-type EP1S, 4 copies) (dsDNA)
DNA 1: TTGACAGTGTCACTTGACAGTGTCACTTGACAGTGTCACTTGACAGTGTCAC
DNA 2: GTGACACTGTCAAGTGACACTGTCAAGTGACACTGTCAAGTGACACTGTCAA
B2: E2 (mutant EP1S, base substitution) (dsDNA)
DNA 1: TTCAGAGTGTCACTTCAGAGTGTCACTTCAGAGTGTCACTTCAGAGTGTCAC
DNA 2: GTGACACTCTGAAGTGACACTCTGAAGTGACACTCTGAAGTGACACTCTGAA

Target: T1, GmZF1 (GST fusion) (Glycine max (soybean), UniProt Q4FH86 1-172)
T1 sequence: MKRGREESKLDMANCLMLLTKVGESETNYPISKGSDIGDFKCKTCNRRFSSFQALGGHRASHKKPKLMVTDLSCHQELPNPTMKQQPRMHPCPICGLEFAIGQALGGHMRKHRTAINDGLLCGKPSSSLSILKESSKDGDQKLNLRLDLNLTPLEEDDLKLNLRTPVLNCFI
Assay: EMSA; 20 µL binding buffer with 32P-labelled probe, glycerine and 0.2 µg purified protein; 6% polyacrylamide gel in TBE (printed as 0.53, probably 0.5x); salt, pH and temperature not stated
Conditions: protein: recombinant; tags: GST (pGEX-4T-1); label: 32P

Binder | binding result
B1 | binds
B2 | binds
